Source: PMC5350145, “Either fadD1 or fadD2, Which Encode acyl-CoA Synthetase, Is Essential for the Survival of Haemophilus parasuis SC096” (Frontiers in Cellular and Infection Microbiology, 2017)

Tests used:
Test in all cases: DTNB free-thiol (CoA) assay, Hanes-Woolf
[1] = target: T1, FadD1 (Glaesserella parasuis, UniProt B8F3K7); assay type: biochemical; settings: 5 mM ATP, 0.5 mM CoA, 10 mM MgCl2, 0.1% Triton X-100, pH 7.2, 37°C; read-out: Kinetic parameters^a / Km^c
T1 construct: gene lcfA; full length, His-tagged in pET28b (NdeI/HindIII), no tag removal described; E. coli BL21 host; locus tag is that of strain SH0165
T1 sequence (B8F3K7 1-566): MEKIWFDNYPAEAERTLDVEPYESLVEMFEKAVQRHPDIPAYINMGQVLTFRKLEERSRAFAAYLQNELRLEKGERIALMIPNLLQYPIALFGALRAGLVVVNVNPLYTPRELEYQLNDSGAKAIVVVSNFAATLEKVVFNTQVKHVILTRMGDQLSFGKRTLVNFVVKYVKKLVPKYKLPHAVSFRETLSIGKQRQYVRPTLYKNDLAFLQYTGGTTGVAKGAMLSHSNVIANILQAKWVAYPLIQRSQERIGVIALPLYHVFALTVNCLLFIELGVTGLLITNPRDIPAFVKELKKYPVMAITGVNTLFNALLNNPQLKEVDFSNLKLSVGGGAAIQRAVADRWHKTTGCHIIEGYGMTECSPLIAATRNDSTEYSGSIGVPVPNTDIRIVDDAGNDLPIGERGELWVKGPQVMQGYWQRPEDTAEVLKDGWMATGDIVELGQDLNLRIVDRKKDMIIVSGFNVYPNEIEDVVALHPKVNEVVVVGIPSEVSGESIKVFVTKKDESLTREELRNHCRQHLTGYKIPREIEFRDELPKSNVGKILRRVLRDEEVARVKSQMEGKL
From the text: (§1) DTNB free-thiol (CoA) assay, Hanes-Woolf on FadD1

[2] = substrate: CCCCCCCCCCCCCCCC(=O)O; assay type: biochemical, Glaesserella parasuis; settings: 5 mM ATP, 0.5 mM CoA, 10 mM MgCl2, 0.1% Triton X-100, pH 7.2, 37°C
From the text: as §1

[3] = substrate: CCCCCCCCCCCCCC(=O)O; assay type: biochemical, Glaesserella parasuis; settings: 5 mM ATP, 0.5 mM CoA, 10 mM MgCl2, 0.1% Triton X-100, pH 7.2, 37°C
From the text: as §1

[4] = substrate: CCCCCCCCCCCCCCCC(=O)O; assay type: biochemical, Glaesserella parasuis; settings: 5 mM ATP, 0.5 mM CoA, 10 mM MgCl2, 0.1% Triton X-100, pH 7.2, 37°C; remark: listed apart in the source
From the text: (§2) DTNB free-thiol (CoA) assay, Hanes-Woolf on FadD2

[5] = substrate: CCCCCCCCCCCCCC(=O)O; assay type: biochemical, Glaesserella parasuis; settings: 5 mM ATP, 0.5 mM CoA, 10 mM MgCl2, 0.1% Triton X-100, pH 7.2, 37°C; remark: listed apart in the source
From the text: as §2

CCCCCCCC/C=C\CCCCCCCC(=O)O [C18:1]
Km [1]: 15.6 µM

B1: FadD1 (Glaesserella parasuis SH0165) (protein)
chain: MEKIWFDNYPAEAERTLDVEPYESLVEMFEKAVQRHPDIPAYINMGQVLTFRKLEERSRAFAAYLQNELRLEKGERIALMIPNLLQYPIALFGALRAGLVVVNVNPLYTPRELEYQLNDSGAKAIVVVSNFAATLEKVVFNTQVKHVILTRMGDQLSFGKRTLVNFVVKYVKKLVPKYKLPHAVSFRETLSIGKQRQYVRPTLYKNDLAFLQYTGGTTGVAKGAMLSHSNVIANILQAKWVAYPLIQRSQERIGVIALPLYHVFALTVNCLLFIELGVTGLLITNPRDIPAFVKELKKYPVMAITGVNTLFNALLNNPQLKEVDFSNLKLSVGGGAAIQRAVADRWHKTTGCHIIEGYGMTECSPLIAATRNDSTEYSGSIGVPVPNTDIRIVDDAGNDLPIGERGELWVKGPQVMQGYWQRPEDTAEVLKDGWMATGDIVELGQDLNLRIVDRKKDMIIVSGFNVYPNEIEDVVALHPKVNEVVVVGIPSEVSGESIKVFVTKKDESLTREELRNHCRQHLTGYKIPREIEFRDELPKSNVGKILRRVLRDEEVARVKSQMEGKL
notes: full length, His-tagged in pET28b (NdeI/HindIII), no tag removal described; E. coli BL21 host; locus tag is that of strain SH0165
Km [2]: 39.90 µM
kcat [2]: 0.098 s⁻¹
kcat/Km [2]: 2450 M⁻¹ s⁻¹
Km [3]: 41.48 µM
kcat [3]: 0.083 s⁻¹
kcat/Km [3]: 2010 M⁻¹ s⁻¹

B2: FadD2 (Glaesserella parasuis SH0165) (protein)
chain: MASLDFHFVNRFRLQAKKWLNRTALRFREQAQWQEMSWQTFQQEIDRFSYALIAQHIDIQDKIGIFANNMPRWTIADFGAMQARAVAVPIYATNTAKQVEYIVNDADIKILFVGDQEQLDQVCQIANNCPQLMKIVAMKANMDLRDLPNACYWEDFLDVVPNEAEFEKRLNSKQLSDLFTLIYTSGTTGEPKGVMLDYANLAHQLNAHDLALNVNEDDVSLSFLPLSHIFERAWVAYVFHRGATNCYLEDTNHVRDALTTLKPTVMCAVPRFYEKIYTAVWDKVEKAPAHRRALFNWAIRVGEKHYQTEQPSQWLRLQYALADKLVLTKLRALLGGRIKMMPCGGAKLEASIGSFFHSIGINIKLGYGMTETTATVSCWQDKGFNPNSIGTLMPNAEVKIGEENEILVRGGMVMRGYYKKPEETAKAFTEDGFLRTGDVGEMDSCGNLFITDRLKELMKTLNGKYIAPQYIEGKIGKDKFIEQIAVIADAKKYVSALIVPCFDSLEEYAKQLNIKYQDRIELIKHSDIIQMFERRIHELQKELPSFEQVKKFTLLPQAFSTAMEEITPTLKLRRKVIMQRYREQIEEMYNERSLT
notes: as for B1
Km [4]: 128.30 µM
kcat [4]: 0.020 s⁻¹
kcat/Km [4]: 160 M⁻¹ s⁻¹
Km [5]: 173.40 µM
kcat [5]: 0.002 s⁻¹
kcat/Km [5]: 10 M⁻¹ s⁻¹
